This series concerns the molecule itself. The series is described as follows: SDS-PAGE under reduced and non-reduced conditions; reduced and non-reduced GzmA run on 10-12 % SDS-PAGE, Coomassie Brilliant Blue stain.

Data on one protein can be found in article PMC6606709, “Granzyme A Stimulates pDCs to Promote Adaptive Immunity via Induction of Type I IFN” (Frontiers in Immunology, 2019).

For orientation: stoichiometry N means the number of molecules, sites or subunits per partner or assembly.

B1: recombinant granzyme A (GzmA), mouse, residues 29-260, histidine-tagged (enzyme, UniProt P11032 29-260, looked up)
chain: IIGGDTVVPHSRPYMALLKLSSNTICAGALIEKNWVLTAAHCNVGKRSKFILGAHSINKEPEQQILTVKKAFPYPCYDEYTREGDLQLVRLKKKATVNRNVAILHLPKKGDDVKPGTRCRVAGWGRFGNKSAPSETLREVNITVIDRKICNDEKHYNFHPVIGLNMICAGDLRGGKDSCNGDSGSPLLCDGILRGITSFGGEKCGDRRWPGVYTFLSDKHLNWIKKIMKGSV
notes: mouse granzyme A, residues 29-260; also called recombinant GzmA
As to B1, the “stoichiometry N” value turned out to be 2.
